The chains are these.
B1: human mammalian tolloid like-2 (TLL-2) (enzyme, UniProt Q9Y6L7 26-1015, looked up)
chain: ATTSRTERIWPGGVIPYVIGGNFTGSQRAIFKQAMRHWEKHTCVTFIERTDEESFIVFSYRTCGCCSYVGRRGGGPQAISIGKNCDKFGIVAHELGHVVGFWHEHTRPDRDQHVTIIRENIQPGQEYNFLKMEAGEVSSLGETYDFDSIMHYARNTFSRGVFLDTILPRQDDNGVRPTIGQRVRLSQGDIAQARKLYKCPACGETLQDTTGNFSAPGFPNGYPSYSHCVWRISVTPGEKIVLNFTSMDLFKSRLCWYDYVEVRDGYWRKAPLLGRFCGDKIPEPLVSTDSRLWVEFRSSSNILGKGFFAAYEATCGGDMNKDAGQIQSPNYPDDYRPSKECVWRITVSEGFHVGLTFQAFEIERHDSCAYDYLEVRDGPTEESALIGHFCGYEKPEDVKSSSNRLWMKFVSDGSINKAGFAANFFKEVDECSWPDHGGCEHRCVNTLGSYKCACDPGYELAADKKMCEVACGGFITKLNGTITSPGWPKEYPTNKNCVWQVVAPAQYRISLQFEVFELEGNDVCKYDFVEVRSGLSPDAKLHGRFCGSETPEVITSQSNNMRVEFKSDNTVSKRGFRAHFFSDKDECAKDNGGCQHECVNTFGSYLCRCRNGYWLHENGHDCKEAGCAHKISSVEGTLASPNWPDKYPSRRECTWNISSTAGHRVKLTFNEFEIEQHQECAYDHLEMYDGPDSLAPILGRFCGSKKPDPTVASGSSMFLRFYSDASVQRKGFQAVHSTECGGRLKAEVQTKELYSHAQFGDNNYPSEARCDWVIVAEDGYGVELTFRTFEVEEEADCGYDYMEAYDGYDSSAPRLGRFCGSGPLEEIYSAGDSLMIRFRTDDTINKKGFHARYTSTKFQDALHMKK
modifications: N-linked glycans (5 predicted from primary sequence; shift with PNGaseF)
notes: purified as a secreted protein; predicted mass of a monomer printed as 98.58 kDa; also called mTLL2; mTLL-2
B2: TLL1 CUB4-CUB5 (domain or fragment, UniProt O43897 774-1003, looked up)
chain: CEQKIHSPSGLITSPNWPDKYPSRKECTWEISATPGHRIKLAFSEFEIEQHQECAYDHLEVFDGETEKSPILGRLCGNKIPDPLVATGNKMFVRFVSDASVQRKGFQATHSTECGGRLKAESKPRDLYSHAQFGDNNYPGQVDCEWLLVSERGSRLELSFQTFEVEEEADCGYDYVELFDGLDSTAVGLGRFCGSGPPEEIYSIGDSVLIHFHTDDTINKKGFHIRYKSI
notes: mammalian tolloid like-1 (TLL-1); domains CUB4 and CUB5; Cloned at OPPF-UK in pOPINTTGneo; also called TLL1-C4C5; C4C5 from TLL-1
B3: TLL2 CUB4-CUB5 (domain or fragment, human, UniProt Q9Y6L7 776-1005, looked up)
chain: CAHKISSVEGTLASPNWPDKYPSRRECTWNISSTAGHRVKLTFNEFEIEQHQECAYDHLEMYDGPDSLAPILGRFCGSKKPDPTVASGSSMFLRFYSDASVQRKGFQAVHSTECGGRLKAEVQTKELYSHAQFGDNNYPSEARCDWVIVAEDGYGVELTFRTFEVEEEADCGYDYMEAYDGYDSSAPRLGRFCGSGPLEEIYSAGDSLMIRFRTDDTINKKGFHARYTST
notes: mammalian tolloid like-2 (TLL-2), human; domains CUB4 and CUB5; Cloned at OPPF-UK in pOPINTTGneo; also called TLL2-C4C5; C4C5 from TLL-2
B4: TLL1 CUB1-CUB2-EGF1 (domain or fragment, UniProt O43897 349-615, looked up)
chain: CGETLQESNGNLSSPGFPNGYPSYTHCIWRVSVTPGEKIVLNFTTMDLYKSSLCWYDYIEVRDGYWRKSPLLGRFCGDKLPEVLTSTDSRMWIEFRSSSNWVGKGFAAVYEAICGGEIRKNEGQIQSPNYPDDYRPMKECVWKITVSESYHVGLTFQSFEIERHDNCAYDYLEVRDGTSENSPLIGRFCGYDKPEDIRSTSNTLWMKFVSDGTVNKAGFAANFFKEEDECAKPDRGGCEQRCLNTLGSYQCACEPGYELGPDRRSCE
notes: mammalian tolloid like-1 (TLL-1); domains CUB1, CUB2 and EGF1; Cloned at OPPF-UK in pOPINTTGneo; also called TLL1-C1C2E1; C1C2E1 from TLL-1
B5: mTLD CUB4-CUB5 (domain or fragment, UniProt P13497 747-976, looked up)
chain: CDHKVTSTSGTITSPNWPDKYPSKKECTWAISSTPGHRVKLTFMEMDIESQPECAYDHLEVFDGRDAKAPVLGRFCGSKKPEPVLATGSRMFLRFYSDNSVQRKGFQASHATECGGQVRADVKTKDLYSHAQFGDNNYPGGVDCEWVIVAEEGYGVELVFQTFEVEEETDCGYDYMELFDGYDSTAPRLGRYCGSGPPEEVYSAGDSVLVKFHSDDTITKKGFHLRYTST
notes: mammalian tolloid (mTLD), product of the Bmp1 gene; domains CUB4 and CUB5; Cloned at OPPF-UK in pOPINTTGneo; also called mTLD-C4C5; C4C5 from mTLD
B6: mTLD CUB1-CUB2-EGF1 (domain or fragment, UniProt P13497 322-588, looked up)
chain: CGETLQDSTGNFSSPEYPNGYSAHMHCVWRISVTPGEKIILNFTSLDLYRSRLCWYDYVEVRDGFWRKAPLRGRFCGSKLPEPIVSTDSRLWVEFRSSSNWVGKGFFAVYEAICGGDVKKDYGHIQSPNYPDDYRPSKVCIWRIQVSEGFHVGLTFQSFEIERHDSCAYDYLEVRDGHSESSTLIGRYCGYEKPDDIKSTSSRLWLKFVSDGSINKAGFAVNFFKEVDECSRPNRGGCEQRCLNTLGSYKCSCDPGYELAPDKRRCE
notes: mammalian tolloid (mTLD), product of the Bmp1 gene; domains CUB1, CUB2 and EGF1 (shared with BMP-1); Cloned at OPPF-UK in pOPINTTGneo; also called mTLD-C1C2E1; C1C2E1 from mTLD/BMP1
B7: TLL2 CUB1-CUB2-EGF1 (domain or fragment, human, UniProt Q9Y6L7 351-617, looked up)
chain: CGETLQDTTGNFSAPGFPNGYPSYSHCVWRISVTPGEKIVLNFTSMDLFKSRLCWYDYVEVRDGYWRKAPLLGRFCGDKIPEPLVSTDSRLWVEFRSSSNILGKGFFAAYEATCGGDMNKDAGQIQSPNYPDDYRPSKECVWRITVSEGFHVGLTFQAFEIERHDSCAYDYLEVRDGPTEESALIGHFCGYEKPEDVKSSSNRLWMKFVSDGSINKAGFAANFFKEVDECSWPDHGGCEHRCVNTLGSYKCACDPGYELAADKKMCE
notes: mammalian tolloid like-2 (TLL-2), human; domains CUB1, CUB2 and EGF1; Cloned at OPPF-UK in pOPINTTGneo; also called TLL2-C1C2E1; C1C2E1 from TLL-2

In general, stoichiometry N refers to the number of molecules, sites or subunits per partner or assembly. Usually Kd stands for the constant that tells how readily two partners part at equilibrium. High values mean weaker binding, low ones tighter binding.

One data set concerns the molecule itself. Nature of the data set: negative-stain electron microscopy, single-particle analysis; TLL-2 ~10 ug/ml in 10 mM HEPES, 500 mM NaCl, 2 mM CaCl2, pH 7.4 on carbon-coated grids, 4% uranyl acetate.
Details: not given
Regarding B1, the “stoichiometry N” value came to 2.

For a further data set, the target named is T1, ΔN-chordin (UniProt Q9H2X0 127-955).
T1 construct: chordin, N-terminally truncated form called ΔN-chordin
T1 sequence (looked up): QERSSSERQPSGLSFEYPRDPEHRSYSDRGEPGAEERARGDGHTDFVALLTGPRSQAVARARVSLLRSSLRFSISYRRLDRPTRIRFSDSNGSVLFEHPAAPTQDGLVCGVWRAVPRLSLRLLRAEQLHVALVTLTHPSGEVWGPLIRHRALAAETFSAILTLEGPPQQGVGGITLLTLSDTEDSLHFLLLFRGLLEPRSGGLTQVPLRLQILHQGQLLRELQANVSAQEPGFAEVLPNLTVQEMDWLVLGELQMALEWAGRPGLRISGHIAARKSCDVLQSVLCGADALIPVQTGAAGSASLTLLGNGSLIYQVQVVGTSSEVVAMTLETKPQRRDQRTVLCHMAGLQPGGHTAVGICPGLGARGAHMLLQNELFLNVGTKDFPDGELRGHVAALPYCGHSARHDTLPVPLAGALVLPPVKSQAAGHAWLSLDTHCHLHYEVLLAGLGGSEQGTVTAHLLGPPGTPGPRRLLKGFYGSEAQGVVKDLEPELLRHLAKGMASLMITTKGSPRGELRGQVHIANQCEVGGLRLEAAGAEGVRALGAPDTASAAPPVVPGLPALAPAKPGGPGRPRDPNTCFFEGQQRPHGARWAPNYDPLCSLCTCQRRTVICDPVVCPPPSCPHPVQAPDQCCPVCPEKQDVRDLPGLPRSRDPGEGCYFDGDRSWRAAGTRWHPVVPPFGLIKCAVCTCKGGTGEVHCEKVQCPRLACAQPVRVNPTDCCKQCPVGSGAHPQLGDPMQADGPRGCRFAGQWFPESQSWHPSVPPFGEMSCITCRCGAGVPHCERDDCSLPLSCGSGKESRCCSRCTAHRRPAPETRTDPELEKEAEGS
In words: SPR; tolloid fragments immobilised on a GLC chip by amine coupling, ΔN-chordin injected as analyte at increasing concentrations; ProteOn XPR36; 10 mM HEPES, 150 mM NaCl, 2 mM CaCl2, 0.05% Tween 20, pH 7.4, 25 °C; 1:1 Langmuir model; triplicate. The settings on record: both partners purified. On the technique in general: Surface plasmon resonance follows binding to a sensor surface in real time, without labels.
As to B2, the Kd is 0.056 ± 0.01 nM.

Regarding B3, binding was characterised by a dissociation constant (Kd) of 0.25 ± 0.02 nM.

B4 showed a Kd of 0.057 ± 0.003 nM.

B5: the affinity, expressed as Kd, was 0.19 ± 0.02 nM.

B6 had a Kd of 0.278 nM.

In turn, B7 registered a Kd of 0.247 ± 0.26 nM.
